From US10428140B2, “Anti-EphA4 antibody” (EISAI R&D MANAGEMENT CO., LTD., priority 2015, dated 2019)

T1: human EphA10 (Homo sapiens, UniProt Q5JZY3)
T1 construct: a protein of the extracellular region of each human Eph receptor fused with the SEAP protein and the His tag; made in house; host or cells: Expi293F cells (culture supernatant)
T1 sequence (Q5JZY3 34-565 limits assumed): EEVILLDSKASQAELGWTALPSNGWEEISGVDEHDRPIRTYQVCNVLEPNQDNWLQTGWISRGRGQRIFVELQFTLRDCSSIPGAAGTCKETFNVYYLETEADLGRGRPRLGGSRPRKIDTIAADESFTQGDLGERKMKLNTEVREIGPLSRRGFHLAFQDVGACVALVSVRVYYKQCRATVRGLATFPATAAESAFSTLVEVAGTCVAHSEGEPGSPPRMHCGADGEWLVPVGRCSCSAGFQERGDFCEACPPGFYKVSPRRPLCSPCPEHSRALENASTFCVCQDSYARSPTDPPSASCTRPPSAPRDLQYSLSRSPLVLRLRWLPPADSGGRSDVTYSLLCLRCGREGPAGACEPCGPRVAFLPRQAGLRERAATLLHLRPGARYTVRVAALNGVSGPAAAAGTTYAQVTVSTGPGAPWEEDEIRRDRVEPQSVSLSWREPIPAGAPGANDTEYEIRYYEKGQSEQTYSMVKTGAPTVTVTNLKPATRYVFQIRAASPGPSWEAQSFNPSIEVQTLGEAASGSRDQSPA

T2: human EphB3 (Homo sapiens, UniProt P54753)
T2 construct: a protein of the extracellular region of each human Eph receptor fused with the SEAP protein and the His tag; made in house; host or cells: Expi293F cells
T2 sequence (P54753 34-559 limits assumed): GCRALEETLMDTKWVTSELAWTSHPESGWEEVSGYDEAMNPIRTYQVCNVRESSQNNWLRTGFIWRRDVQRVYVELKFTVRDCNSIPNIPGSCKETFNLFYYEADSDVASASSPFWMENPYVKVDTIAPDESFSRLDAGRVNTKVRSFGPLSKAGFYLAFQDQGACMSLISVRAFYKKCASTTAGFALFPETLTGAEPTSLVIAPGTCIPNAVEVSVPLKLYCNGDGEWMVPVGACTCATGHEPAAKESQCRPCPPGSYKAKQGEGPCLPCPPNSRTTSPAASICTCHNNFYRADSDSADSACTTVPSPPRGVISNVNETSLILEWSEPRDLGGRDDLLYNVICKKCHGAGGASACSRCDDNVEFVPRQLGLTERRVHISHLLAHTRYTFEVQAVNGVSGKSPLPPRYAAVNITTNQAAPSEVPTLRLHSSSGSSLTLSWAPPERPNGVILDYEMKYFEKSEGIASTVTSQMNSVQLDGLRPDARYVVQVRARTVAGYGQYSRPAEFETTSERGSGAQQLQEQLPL

B1: 153 (antibody, V domains shown)
VH: QVQLVQSGSELKKPGASVKVSCKASGYTFTDYSMHWVRQAPGQGLKWMGWINTETGEPTYAQGFTGRFVFSLDTSVSTAYLQISSLKAEDTAVYYCARIPLYYYGSRYWYFDVWGQGTTVTVSS
VL: DIQMTQSPSSLSASVGDRVTITCRASENIYRNLAWYQQKPGKAPKLLLYAATNLADGVPSRFSGSGSGTDYTLTISSLQSEDFATYYCQHFWGTPWTFGQGTKVEIK
modifications: synthetic humanized antibody heavy chain variable region sequence; synthetic humanized antibody light chain variable region sequence
B2: 151 (antibody, V domains shown)
VH: QIQLVQSGSELKKPGASVKVSCKASGYTFTDYSMHWVRQAPGQGLKWMGWINTETGEPTYAQGFTGRFVFSLDTSVSTAYLQISSLKAEDTAVYYCARIPLYYYGSRYWYFDVWGQGTTVTVSS
VL: DIQMTQSPSSLSASVGDRVTITCRASENIYRNLAWYQQKPGKAPKLLLYAATNLADGVPSRFSGSGSGTDYTLTISSLQSEDFATYYCQHFWGTPWTFGQGTKVEIK
modifications: synthetic humanized antibody heavy chain variable region sequence; synthetic humanized antibody light chain variable region sequence
B3: 154 (antibody, V domains shown)
VH: QVQLVQSGSELKKPGASVKVSCKASGYTFTDYSMHWVRQAPGQGLEWMGWINTETGEPTYADDFKGRFVFSLDTSVSTAYLQISSLKAEDTAVYYCARIPLYYYGSRYWYFDVWGQGTTVTVSS
VL: DIQMTQSPSSLSASVGDRVTITCRASENIYRNLAWYQQKPGKAPKLLLYAATNLADGVPSRFSGSGSGTDYTLTISSLQSEDFATYYCQHFWGTPWTFGQGTKVEIK
modifications: synthetic humanized antibody heavy chain variable region sequence; synthetic humanized antibody light chain variable region sequence
B4: 145 (antibody, V domains shown)
VH: QVQLVQSGSELKKPGASVKVSCKASGYTFTDYSMHWVRQAPGQGLKWMGWINTETGEPTYADDFKGRFVFSLDTSVSTAYLQISSLKAEDTAVYYCARIPLYYYGSRYWYFDVWGQGTTVTVSS
VL: DIQMTQSPSSLSASVGDRVTITCRASENIYRNLAWYQQKPGKAPKLLLYAATNLADGVPSRFSGSGSGTDYTLTISSLQSEDFATYYCQHFWGTPWTFGQGTKVEIK
modifications: synthetic humanized antibody heavy chain variable region sequence; synthetic humanized antibody light chain variable region sequence
B5: 155 (antibody, V domains shown)
VH: QIQLVQSGSELKKPGASVKVSCKASGYTFTDYSMHWVRQAPGQGLKWMGWINTETGEPTYADDFKGRFVFSLDTSVSTAYLQISSLKAEDTAVYYCARIPLYYYGSRYWYFDVWGQGTTVTVSS
VL: DIQMTQSPSSLSASVGDRVTITCRASENIYRNLAWYQQKPGKAPKLLLYAATNLADGVPSRFSGSGSGTDYTLTISSLQSEDFATYYCQHFWGTPWTFGQGTKVEIK
modifications: synthetic humanized antibody heavy chain variable region sequence; synthetic humanized antibody light chain variable region sequence
B6: 157 (antibody, V domains shown)
VH: QVQLVQSGSELKKPGASVKVSCKASGYTFTDYSMHWVRQAPGQGLEWMGWINTETGEPTYAQGFTGRFVFSLDTSVSTAYLQISSLKAEDTAVYYCARIPLYYYGSRYWYFDVWGQGTTVTVSS
VL: DIQMTQSPSSLSASVGDRVTITCRASENIYRNLAWYQQKPGKAPQLLLYAATNLADGVPSRFSGSGSGTDYTLTISSLQPEDFATYYCQHFWGTPWTFGQGTKVEIK
modifications: synthetic humanized antibody heavy chain variable region sequence; synthetic humanized antibody light chain variable region sequence
B7: 158 (antibody, V domains shown)
VH: QVQLVQSGSELKKPGASVKVSCKASGYTFTDYSMHWVRQAPGQGLKWMGWINTETGEPTYAQGFTGRFVFSLDTSVSTAYLQISSLKAEDTAVYYCARIPLYYYGSRYWYFDVWGQGTTVTVSS
VL: DIQMTQSPSSLSASVGDRVTITCRASENIYRNLAWYQQKPGKAPQLLLYAATNLADGVPSRFSGSGSGTDYTLTISSLQPEDFATYYCQHFWGTPWTFGQGTKVEIK
modifications: synthetic humanized antibody heavy chain variable region sequence; synthetic humanized antibody light chain variable region sequence
B8: 144 (antibody, V domains shown)
VH: QVQLVQSGSELKKPGASVKVSCKASGYTFTDYSMHWVRQAPGQGLEWMGWINTETGEPTYADDFKGRFVFSLDTSVSTAYLQISSLKAEDTAVYYCARIPLYYYGSRYWYFDVWGQGTTVTVSS
VL: DIQMTQSPSSLSASVGDRVTITCRASENIYRNLAWYQQKPGKAPQLLLYAATNLADGVPSRFSGSGSGTDYTLTISSLQPEDFATYYCQHFWGTPWTFGQGTKVEIK
modifications: synthetic humanized antibody heavy chain variable region sequence; synthetic humanized antibody light chain variable region sequence
B9: 159 (antibody, V domains shown)
VH: QVQLVQSGSELKKPGASVKVSCKASGYTFTDYSMHWVRQAPGQGLKWMGWINTETGEPTYADDFKGRFVFSLDTSVSTAYLQISSLKAEDTAVYYCARIPLYYYGSRYWYFDVWGQGTTVTVSS
VL: DIQMTQSPSSLSASVGDRVTITCRASENIYRNLAWYQQKPGKAPQLLLYAATNLADGVPSRFSGSGSGTDYTLTISSLQPEDFATYYCQHFWGTPWTFGQGTKVEIK
modifications: synthetic humanized antibody heavy chain variable region sequence; synthetic humanized antibody light chain variable region sequence

Legend:
Experiment in all cases: Selectivity ELISA of humanized antibodies for human Eph receptor
Type in all cases: binding
Conditions in all cases: coated protein 1 nM
SEAP-His = SEAP-His (Homo sapiens, UniProt P05187)
Summary of the method: (§1)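 Human Eph ECD-SEAP-His fusions, harvested after 5 days of Expi293F expression, are captured on anti-His-coated wells (1 nM final). Bound humanized antibody is detected with HRP anti-IgG and TMB at 450 nm.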

human EphA10 = target: T1, human EphA10
Summary of the method: as §1

human EphB3 = target: T2, human EphB3
Summary of the method: as §1

SEAP-His, sequence (P05187 23-511 limits assumed): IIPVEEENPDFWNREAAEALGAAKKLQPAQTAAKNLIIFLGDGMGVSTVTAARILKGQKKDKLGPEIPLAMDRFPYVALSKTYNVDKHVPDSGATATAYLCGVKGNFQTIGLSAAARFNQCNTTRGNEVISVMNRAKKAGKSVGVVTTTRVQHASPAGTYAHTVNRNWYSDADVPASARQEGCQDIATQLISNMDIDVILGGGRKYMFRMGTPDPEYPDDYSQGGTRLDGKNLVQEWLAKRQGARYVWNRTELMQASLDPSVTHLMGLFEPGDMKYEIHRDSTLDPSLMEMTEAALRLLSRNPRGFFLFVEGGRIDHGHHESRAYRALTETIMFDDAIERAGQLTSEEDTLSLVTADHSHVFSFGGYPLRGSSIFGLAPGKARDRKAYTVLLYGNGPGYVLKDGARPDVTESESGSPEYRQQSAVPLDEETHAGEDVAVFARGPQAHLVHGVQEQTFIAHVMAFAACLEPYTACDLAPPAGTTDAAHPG

Row | SEAP-His: absorbance at 450 nm, percentage with respect to hEphA4-SEAP-His as 100% (SEAP-His) | hEphA10-SEAP-: absorbance at 450 nm, percentage with respect to hEphA4-SEAP-His as 100% (human EphA10) | hEphB3-SEAP-: absorbance at 450 nm, percentage with respect to hEphA4-SEAP-His as 100% (human EphB3) | Molecule
1 | 5.9% | 6.0% | 5.9% | B1
2 | 6.8% | 6.6% | 7.3% | B2
3 | 6.3% | 5.9% | 6.2% | B3
4 | 6.4% | 6.5% | 6.7% | B4
5 | 5.8% | 5.4% | 5.5% | B5
6 | 6.1% | 6.1% | 6.4% | B6
7 | 6.3% | 6.4% | 6.5% | B7
8 | 5.7% | 5.7% | 5.8% | B8
9 | 5.3% | 5.3% | 5.5% | B9
